{
  "source": "patent US20240076396A1",
  "about": "(Regeneron, published 2024)",
  "binders": {"B1": {"name": "mAb1 (antibody, human IgG1, kappa, V domains shown)", "VH": "QVQLQESGPGLVKPSETLSLTCIVSGGSISGYFWNWIRQPPGKGLEWIGYIYYSGTTIYNPSLKSRFTISLDTSKNQFSLKLTSVTAADTAVYYCARESYDPSPRYFDHWGQGTLVTVSS", "VL": "not shown", "notes": "Human IgG1; N101D variant of CompAb1; also called N101D Variant; N101D"}},
  "key": {"[1]": {"molecular_target": "T1, Jurkat/hCD20 cells (human CD20, no GITR; negative control cell line) (human, UniProt P11836 1-297)", "T1 construct": "whole, on cells; Control cell line without engineered GITR; the only named engineered protein on it is hCD20", "T1 sequence (looked up)": "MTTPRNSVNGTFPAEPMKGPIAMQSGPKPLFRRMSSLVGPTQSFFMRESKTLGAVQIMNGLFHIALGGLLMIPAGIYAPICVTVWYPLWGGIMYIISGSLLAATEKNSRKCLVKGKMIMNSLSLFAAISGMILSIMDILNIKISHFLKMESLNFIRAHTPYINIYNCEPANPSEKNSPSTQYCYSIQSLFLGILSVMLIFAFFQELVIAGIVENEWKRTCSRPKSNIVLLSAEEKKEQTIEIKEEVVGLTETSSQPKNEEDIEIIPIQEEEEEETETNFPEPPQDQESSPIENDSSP", "experiment": "flow cytometry on Jurkat/hCD20 cells", "experimental": "(§1) FIG. 5A, FIG. 5B, and FIG. 5C depict cell-surface binding of mAb1 and IgG1 isotype control at a range of concentrations (18 pM to 300 nM) on Jurkat/hCD20 (FIG. 5A), Jurkat/hCD20/hGITR (FIG. 5B), and Jurkat/hCD20/MfGITR (FIG. 5C) cells. Binding was detected using an Alexa647-labeled anti-human IgG by flow cytometry. Fluorescence intensity was plotted as geometric MFI. h, Human; Mf, Macaca fascicularis (cynomolgus monkey).\n(§2) Flow cytometry was used to evaluate mAb1 binding to Jurkat/hCD20/hGITR cells and Jurkat/hCD20/MfGITR cells. Jurkat/hCD20 cells were used as a negative control cell line for GITR binding. Cells were added to a 96-well V-bottom plate (2×10⁵ to 4×10⁵ cells/well) and incubated in Fc block solution, followed by successive incubation on ice with primary antibody (mAb1 or IgG1 isotype control) at final concentrations ranging from 18 pM to 300 nM and a secondary antibody (AF647-conjugated anti-human IgG) at 5 μg/mL. […] Data were analyzed with Flow.lo software. For EC₅₀ (effective concentration at 50% activity) determinations, measured geometric MFI values were analyzed using a 4-parameter logistic equation over a 9-point response curve with GraphPad Prism. The fold binding was determined by taking the ratio of the highest MFI on the curve to the MFI of the wells containing secondary antibody only."}, "[2]": {"molecular_target": "T2, hGITR.mmH (soluble monomeric recombinant human GITR ectodomain protein) (human)", "T2 construct": "also called monomeric human GITR", "T2 chain": "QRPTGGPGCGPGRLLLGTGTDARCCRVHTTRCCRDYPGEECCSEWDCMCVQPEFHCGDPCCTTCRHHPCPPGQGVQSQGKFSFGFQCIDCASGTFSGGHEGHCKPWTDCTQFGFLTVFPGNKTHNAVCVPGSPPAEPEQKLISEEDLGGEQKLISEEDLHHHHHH", "experiment": "SPR Biacore T-200; purified antibody captured on anti-human Fc; 10 nM hGITR.mmH", "experimental": "For purified antibodies, Biacore experiments were performed as follows. Using a Biacore T-200 instrument, antibodies were captured for 30 seconds at a flow rate of 8 uL/min on a CM5 anti-humanFc-coupled surface. Approximately 120 RU of each antibody were captured. 10 nM hGITR.mmH (soluble monomeric hGITR, SEQ ID NO: 45) or 5 nM hGITR.mFc (dimeric Macaca fasicularis GITR, SEQ ID NO: 46) were injected over this surface for 5 minutes at a flow rate of 50 uL/min. Dissociation was measured for 10 min. The KD and t_{1/2} were calculated by fitting the double-referenced sensorgrams to a 1:1 binding model."}, "[3]": {"molecular_target": "T1, Jurkat/hCD20 cells (human CD20, no …)", "experiment": "cell-based or functional assay"}, "[4]": {"molecular_target": "T3, cynomolgus monkey GITR expressed on the cell surface (Macaca fascicularis (cynomolgus monkey))", "experiment": "cell-based or functional assay"}, "[5]": {"molecular_target": "T4, human GITR expressed on the cell surface (human, UniProt Q9Y5U5 26-241)", "T4 sequence": "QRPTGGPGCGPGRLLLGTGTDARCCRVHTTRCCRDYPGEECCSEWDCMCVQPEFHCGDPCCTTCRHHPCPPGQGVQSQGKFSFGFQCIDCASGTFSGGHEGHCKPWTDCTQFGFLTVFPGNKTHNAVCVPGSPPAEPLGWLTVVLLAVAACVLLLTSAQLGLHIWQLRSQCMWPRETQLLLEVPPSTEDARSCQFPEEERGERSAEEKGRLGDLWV", "experiment": "cell-based or functional assay"}, "[6]": {"molecular_target": "T2, hGITR.mmH (soluble monomeric …)", "experiment": "blocking ELISA: 1.5 nM hGITR.mmH pre-incubated with antibody, binding to plate-coated hGITR-L"}, "[7]": {"molecular_target": "T3, cynomolgus monkey GITR expressed on the …", "experiment": "flow cytometry on Jurkat/hCD20/MfGITR cells", "experimental": "as §1, §2"}, "[8]": {"molecular_target": "T4, human GITR expressed on the cell surface", "experiment": "flow cytometry on Jurkat/hCD20/hGITR cells; max MFI over secondary antibody alone", "experimental": "as §2, with “μg/mL. Cells were then stained with LIVE/DEAD Fixable Green Dead Cell Stain according to the manufacturer's instructions.” for “μg/mL.”\n^a The maximum MFI was the highest mean MFI value within the concentration range tested (18 pM to 300 nM). ^b Fold binding was calculated as the maximum MFI above background (secondary antibody alone). h, Human; Mf, Macaca fascicularis (cynomolgus monkey); ND, Not determined because concentration-dependent binding was not observed"}},
  "data": [
    {"binder": "B1", "values": [
      {"measurement": "binding result", "setting": "[1]", "value": "no binding (tested: 18 pM to 300 nM)"},
      {"measurement": "Kd", "setting": "[2]", "value": 1.18, "unit": "nM"},
      {"measurement": "t1/2", "setting": "[2]", "value": 7.58, "unit": "min"},
      {"measurement": "Fold Change in Activity, NFAT-luciferase in Jurkat/NFAT-Luc/MfFcγR3a effector cells with Jurkat/hCD20 target cells", "setting": "[3]", "value": 1.02, "unit": "fold"},
      {"measurement": "Fold Change in Activity, NFAT-luciferase in Jurkat/NFAT-Luc/hFcγR3a effector cells with Jurkat/hCD20 target cells", "setting": "[3]", "value": 1.01, "unit": "fold"},
      {"measurement": "EC50, NFAT-luciferase in Jurkat/NFAT-Luc/MfFcγR3a effector cells with Jurkat/hCD20/MfGITR target cells", "setting": "[4]", "value": 16, "unit": "pM"},
      {"measurement": "Fold Change in Activity, NFAT-luciferase in Jurkat/NFAT-Luc/MfFcγR3a effector cells with Jurkat/hCD20/MfGITR target cells", "setting": "[4]", "value": 23.9, "unit": "fold"},
      {"measurement": "EC50, NFAT-luciferase in Jurkat/NFAT-Luc/hFcγR3a effector cells with Jurkat/hCD20/hGITR target cells", "setting": "[5]", "value": 32, "unit": "pM"},
      {"measurement": "Fold Change in Activity, NFAT-luciferase in Jurkat/NFAT-Luc/hFcγR3a effector cells with Jurkat/hCD20/hGITR target cells", "setting": "[5]", "value": 38, "unit": "fold"},
      {"measurement": "IC50", "setting": "[6]", "value": 6.66, "unit": "nM"},
      {"measurement": "EC50", "setting": "[7]", "value": 3.52, "unit": "nM"},
      {"measurement": "Fold Binding", "setting": "[8]", "value": 290, "unit": "fold"}
    ]}
  ]
}
